Consider ten variants from IntAct's records for PubMed 31515488.

To fix the notation:
B1: TNF receptor-associated factor 2 (Homo sapiens), Q12933 (parent)
chain: MAAASVTPPGSLELLQPGFSKTLLGTKLEAKYLCSACRNVLRRPFQAQCGHRYCSFCLASILSSGPQNCAACVHEGIYEEGISILESSSAFPDNAARREVESLPAVCPSDGCTWKGTLKEYESCHEGRCPLMLTECPACKGLVRLGEKERHLEHECPERSLSCRHCRAPCCGADVKAHHEVCPKFPLTCDGCGKKKIPREKFQDHVKTCGKCRVPCRFHAIGCLETVEGEKQQEHEVQWLREHLAMLLSSVLEAKPLLGDQSHAGSELLQRCESLEKKTATFENIVCVLNREVERVAMTAEACSRQHRLDQDKIEALSSKVQQLERSIGLKDLAMADLEQKVLEMEASTYDGVFIWKISDFARKRQEAVAGRIPAIFSPAFYTSRYGYKMCLRIYLNGDGTGRGTHLSLFFVVMKGPNDALLRWPFNQKVTLMLLDQNNREHVIDAFRPDVTSSSFQRPVNDMNIASGCPLFCPVSKMEAKNSYVRDDAIFIKAIVDLTGL
partner: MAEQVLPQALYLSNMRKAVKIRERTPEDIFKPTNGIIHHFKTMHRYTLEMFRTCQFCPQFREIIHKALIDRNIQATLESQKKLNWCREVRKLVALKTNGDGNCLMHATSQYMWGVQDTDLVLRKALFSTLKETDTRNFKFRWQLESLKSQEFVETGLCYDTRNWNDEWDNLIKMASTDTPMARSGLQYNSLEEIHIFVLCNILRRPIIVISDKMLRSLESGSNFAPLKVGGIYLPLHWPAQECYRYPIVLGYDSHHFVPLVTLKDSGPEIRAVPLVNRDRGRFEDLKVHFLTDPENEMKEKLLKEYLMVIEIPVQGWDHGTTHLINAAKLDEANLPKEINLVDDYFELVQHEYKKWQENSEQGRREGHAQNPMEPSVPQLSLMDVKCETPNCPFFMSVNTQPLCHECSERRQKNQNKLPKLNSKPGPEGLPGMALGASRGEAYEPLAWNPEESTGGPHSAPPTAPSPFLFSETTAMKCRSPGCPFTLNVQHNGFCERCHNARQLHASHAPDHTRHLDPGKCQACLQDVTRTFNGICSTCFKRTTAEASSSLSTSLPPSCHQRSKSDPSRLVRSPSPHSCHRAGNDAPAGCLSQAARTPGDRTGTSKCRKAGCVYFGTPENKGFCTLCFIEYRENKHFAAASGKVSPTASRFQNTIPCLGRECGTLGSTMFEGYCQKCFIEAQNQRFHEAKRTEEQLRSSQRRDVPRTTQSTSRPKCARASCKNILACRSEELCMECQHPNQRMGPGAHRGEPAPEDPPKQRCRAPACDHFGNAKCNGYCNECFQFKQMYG
B2: U2 small nuclear ribonucleoprotein A' (Homo sapiens), P09661 (parent)
chain: MVKLTAELIEQAAQYTNAVRDRELDLRGYKIPVIENLGATLDQFDAIDFSDNEIRKLDGFPLLRRLKTLLVNNNRICRIGEGLDQALPCLTELILTNNSLVELGDLDPLASLKSLTYLSILRNPVTNKKHYRLYVIYKVPQVRVLDFQKVKLKERQEAEKMFKGKRGAQLAKDIARRSKTFNPGAGLPTDKKKGGPSPGDVEAIKNAIANASTLAEVERLKGLLQSGQIPGRERRSGPTDDGEEEMEEDTVTNGS
B3: Glutathione S-transferase Mu 5 (Homo sapiens), P46439 (parent)
chain: MPMTLGYWDIRGLAHAIRLLLEYTDSSYVEKKYTLGDAPDYDRSQWLNEKFKLGLDFPNLPYLIDGAHKITQSNAILRYIARKHNLCGETEEEKIRVDILENQVMDNHMELVRLCYDPDFEKLKPKYLEELPEKLKLYSEFLGKRPWFAGDKITFVDFLAYDVLDMKRIFEPKCLDAFLNLKDFISRFEGLKKISAYMKSSQFLRGLLFGKSATWNSK
B4: Cyclic AMP-responsive element-binding protein 3-like protein 1 (Homo sapiens), Q96BA8 (parent)
chain: MDAVLEPFPADRLFPGSSFLDLGDLNESDFLNNAHFPEHLDHFTENMEDFSNDLFSSFFDDPVLDEKSPLLDMELDSPTPGIQAEHSYSLSGDSAPQSPLVPIKMEDTTQDAEHGAWALGHKLCSIMVKQEQSPELPVDPLAAPSAMAAAAAMATTPLLGLSPLSRLPIPHQAPGEMTQLPVIKAEPLEVNQFLKVTPEDLVQMPPTPPSSHGSDSDGSQSPRSLPPSSPVRPMARSSTAISTSPLLTAPHKLQGTSGPLLLTEEEKRTLIAEGYPIPTKLPLTKAEEKALKRVRRKIKNKISAQESRRKKKEYVECLEKKVETFTSENNELWKKVETLENANRTLLQQLQKLQTLVTNKISRPYKMAATQTGTCLMVAALCFVLVLGSLVPCLPEFSSGSQTVKEDPLAADGVYTASQMPSRSLLFYDDGAGLWEDGRSTLLPMEPPDGWEINPGGPAEQRPRDHLQHDHLDSTHETTKYLSEAWPKDGGNGTSPDFSHSKEWFHDRDLGPNTTIKLS
B5: Tuftelin-interacting protein 11 (Homo sapiens), Q9UBB9 (parent)
chain: MSLSHLYRDGEGRIDDDDDERENFEITDWDLQNEFNPNRQRHWQTKEEATYGVWAERDSDDERPSFGGKRARDYSAPVNFISAGLKKGAAEEAELEDSDDEEKPVKQDDFPKDFGPRKLKTGGNFKPSQKGFAGGTKSFMDFGSWERHTKGIGQKLLQKMGYVPGRGLGKNAQGIINPIEAKQRKGKGAVGAYGSERTTQSMQDFPVVDSEEEAEEEFQKELSQWRKDPSGSKKKPKYSYKTVEELKAKGRISKKLTAPQKELSQVKVIDMTGREQKVYYSYSQISHKHNVPDDGLPLQSQQLPQSGKEAKAPGFALPELEHNLQLLIDLTEQEIIQNDRQLQYERDMVVNLFHELEKMTEVLDHEERVISNLSKVLEMVEECERRMQPDCSNPLTLDECARIFETLQDKYYEEYRMSDRVDLAVAIVYPLMKEYFKEWDPLKDCTYGTEIISKWKSLLENDQLLSHGGQDLSADAFHRLIWEVWMPFVRNIVTQWQPRNCDPMVDFLDSWVHIIPVWILDNILDQLIFPKLQKEVENWNPLTDTVPIHSWIHPWLPLMQARLEPLYSPIRSKLSSALQKWHPSDSSAKLILQPWKDVFTPGSWEAFMVKNIVPKLGMCLGELVINPHQQHMDAFYWVIDWEGMISVSSLVGLLEKHFFPKWLQVLCSWLSNSPNYEEITKWYLGWKSMFSDQVLAHPSVKDKFNEALDIMNRAVSSNVGAYMQPGARENIAYLTHTERRKDFQYEAMQERREAENMAQRGIGVAASSVPMNFKDLIETKAEEHNIVFMPVIGKRHEGKQLYTFGRIVIYIDRGVVFVQGEKTWVPTSLQSLIDMAK
partner: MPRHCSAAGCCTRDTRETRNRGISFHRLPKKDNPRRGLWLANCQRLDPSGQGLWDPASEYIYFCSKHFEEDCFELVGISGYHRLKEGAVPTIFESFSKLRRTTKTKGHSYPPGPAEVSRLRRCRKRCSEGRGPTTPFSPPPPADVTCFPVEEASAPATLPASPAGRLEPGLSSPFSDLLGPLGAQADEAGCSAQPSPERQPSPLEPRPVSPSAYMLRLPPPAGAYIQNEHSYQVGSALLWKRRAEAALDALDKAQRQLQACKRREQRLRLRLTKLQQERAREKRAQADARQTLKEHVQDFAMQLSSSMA
B6: GRIP and coiled-coil domain-containing protein 1 (Homo sapiens), Q96CN9 (parent)
chain: MEKFGMNFGGGPSKKDLLETIETQKKQLLQYQARLKDVVRAYKSLLKEKEALEASIKVLSVSHEADVGLAGVQLPGLTFPDSVDDRCSTHSEDSTGTATSLDTAASLTSTKGEFGVEDDRPARGPPPPKSEEASWSESGVSSSSGDGPFAGGEVDKRLHQLKTQLATLTSSLATVTQEKSRMEASYLADKKKMKQDLEDASNKAEEERARLEGELKGLQEQIAETKARLITQQHDRAQEQSDHALMLRELQKLLQEERTQRQDLELRLEETREALAGRAYAAEQMEGFELQTKQLTREVEELKSELQAIRDEKNQPDPRLQELQEEAARLKSHFQAQLQQEMRKTALAEDQLRQQSQVEEQRVAALENQISEVSELLGTYEKAKQKDQLAIQKLKERILQLDLENKTLALAASSRSPLDSHGEESSLDVNVLKDKMEKLKRLLQVAARKSQVTLDVEKLCDLEIMPSSEAADGEKATALYYQQELKQLKEEFERYKMRAQVVLKSKNTKDGNLGKELEAAQEQLAELKEKYISLRLSCEELEHQHQQEADDWKQELARLQQLHRQELERCQLDFRDRTLKLEEELHKQRDRALAVLTEKDLELEQLRSVALASGLPGRRSPVGGGGPGDPADTSSSDSLTQALQLAAANEPTFFLYAEQLARKEVEITSLRKQKHRLEVEVHQLQDRLLEEGERHREEVAALQSHIEKNIRDQSREGANLEYLKNIIYRFLTLPDSLGRQQTLTAILTILHFSPEEKQVIMRLPTSASWWPSGKR
partner: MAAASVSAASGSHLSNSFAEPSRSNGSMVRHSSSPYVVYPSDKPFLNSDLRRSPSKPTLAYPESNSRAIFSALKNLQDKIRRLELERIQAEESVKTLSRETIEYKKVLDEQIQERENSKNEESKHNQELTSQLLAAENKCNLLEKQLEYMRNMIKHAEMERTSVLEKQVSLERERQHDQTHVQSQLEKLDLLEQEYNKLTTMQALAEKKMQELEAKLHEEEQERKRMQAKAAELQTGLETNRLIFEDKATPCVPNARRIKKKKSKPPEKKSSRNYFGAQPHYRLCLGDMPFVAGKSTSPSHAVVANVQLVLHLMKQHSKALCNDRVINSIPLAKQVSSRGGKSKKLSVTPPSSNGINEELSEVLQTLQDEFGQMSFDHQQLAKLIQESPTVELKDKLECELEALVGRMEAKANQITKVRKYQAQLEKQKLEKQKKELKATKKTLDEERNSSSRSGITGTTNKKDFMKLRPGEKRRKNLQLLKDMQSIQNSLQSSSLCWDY

The variants in one test derive from B1. To be noted: with tnap3_human TNFAIP3, P21580.
Regarding V206I, the “effect of a mutation on the interaction” value is on record as “with no effect”.

As to T134A, the “effect of a mutation on the interaction” value is on record as “with no effect”.

In the next test the parent is B2. The settings on record: with ru2b_human SNRPB2, P08579.
Sequence of ru2b_human SNRPB2, P08579 (P08579 whole entry): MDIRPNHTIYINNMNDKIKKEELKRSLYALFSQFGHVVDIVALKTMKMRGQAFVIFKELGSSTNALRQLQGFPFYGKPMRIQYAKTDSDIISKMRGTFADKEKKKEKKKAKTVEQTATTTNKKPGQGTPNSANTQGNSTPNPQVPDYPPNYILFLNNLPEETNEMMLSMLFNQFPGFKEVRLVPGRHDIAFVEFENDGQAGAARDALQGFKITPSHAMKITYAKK
With S99N, the “effect of a mutation on the interaction” value was “with no effect”.

P32S: the “effect of a mutation on the interaction” value is given as “with no effect”.

In the next test the parent is B3. The settings on record: with amol2_human AMOTL2, Q9Y2J4.
Sequence of amol2_human AMOTL2, Q9Y2J4 (Q9Y2J4 whole entry): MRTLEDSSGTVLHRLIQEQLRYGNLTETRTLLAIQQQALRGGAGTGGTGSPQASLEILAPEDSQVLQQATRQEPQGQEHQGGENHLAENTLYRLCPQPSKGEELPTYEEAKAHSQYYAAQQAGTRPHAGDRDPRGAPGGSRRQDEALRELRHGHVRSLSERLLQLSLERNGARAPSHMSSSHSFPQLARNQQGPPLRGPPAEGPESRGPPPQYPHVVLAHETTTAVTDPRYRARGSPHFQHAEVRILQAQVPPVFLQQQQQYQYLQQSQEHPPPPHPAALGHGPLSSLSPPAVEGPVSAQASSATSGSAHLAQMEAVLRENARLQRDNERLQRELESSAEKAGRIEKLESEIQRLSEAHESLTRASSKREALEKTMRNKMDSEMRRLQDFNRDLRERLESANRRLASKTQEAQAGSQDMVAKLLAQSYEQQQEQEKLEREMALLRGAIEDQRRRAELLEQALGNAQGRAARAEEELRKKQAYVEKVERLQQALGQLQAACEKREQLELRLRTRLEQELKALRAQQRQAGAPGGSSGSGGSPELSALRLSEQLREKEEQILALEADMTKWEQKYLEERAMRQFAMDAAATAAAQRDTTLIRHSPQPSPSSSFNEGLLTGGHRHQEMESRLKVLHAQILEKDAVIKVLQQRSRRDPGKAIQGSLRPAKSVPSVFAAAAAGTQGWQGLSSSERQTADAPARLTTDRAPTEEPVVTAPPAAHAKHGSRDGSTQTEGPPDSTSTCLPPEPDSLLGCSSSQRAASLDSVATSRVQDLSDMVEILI
L179P: the “effect of a mutation on the interaction” value is “with no effect”.

In another test the parent is B4. To be noted: with gpr25_human GPR25, O00155.
Sequence of gpr25_human GPR25, O00155 (O00155 whole entry): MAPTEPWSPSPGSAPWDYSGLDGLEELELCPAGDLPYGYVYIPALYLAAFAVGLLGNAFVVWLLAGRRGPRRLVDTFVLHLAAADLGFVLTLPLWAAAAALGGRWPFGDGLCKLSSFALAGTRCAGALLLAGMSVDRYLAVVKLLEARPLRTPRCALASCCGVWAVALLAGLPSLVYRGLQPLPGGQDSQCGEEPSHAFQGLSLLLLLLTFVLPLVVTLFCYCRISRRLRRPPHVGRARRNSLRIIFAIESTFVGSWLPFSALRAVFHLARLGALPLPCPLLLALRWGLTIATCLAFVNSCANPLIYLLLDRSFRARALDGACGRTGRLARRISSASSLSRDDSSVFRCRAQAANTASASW
With I516S, the “effect of a mutation on the interaction” value is given as “with no effect”.

Regarding A152T, the “effect of a mutation on the interaction” value was “with no effect”.

The variants in a further test derive from B4. The settings on record: with tm147_human TMEM147, Q9BVK8.
Sequence of tm147_human TMEM147, Q9BVK8 (Q9BVK8 whole entry): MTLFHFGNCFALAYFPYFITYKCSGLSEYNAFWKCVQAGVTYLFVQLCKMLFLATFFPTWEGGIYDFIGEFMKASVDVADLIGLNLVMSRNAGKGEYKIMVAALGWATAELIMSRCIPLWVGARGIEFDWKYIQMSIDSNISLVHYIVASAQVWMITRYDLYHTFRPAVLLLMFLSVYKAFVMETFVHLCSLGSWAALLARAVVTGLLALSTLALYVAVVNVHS
In the case of I516S, the “effect of a mutation on the interaction” value is reported as “with no effect”.

With A152T, the “effect of a mutation on the interaction” value is “with no effect”.

Variants of B5 are the subject of the next test. To be noted: with thap7_human THAP7, Q9BT49.
For the variant R8Q, the “effect of a mutation on the interaction” value was “with no effect”.

For S688L, the “effect of a mutation on the interaction” value is given as “with no effect”.

The variants in a further test derive from B6. To be noted: with cep57_human CEP57, Q86XR8.
As for A274T, the “effect of a mutation on the interaction” value is reported as “with no effect”.
